This is an account of results in patent US20140186370A1 (Kyowa Kirin, published 2014).

The experiment addresses T1, H3 protein ectodomain from vaccinia virus strain Lister with C-terminal 6-HIS tag, expressed from pET21a(+) (vaccinia virus strain Lister, UniProt P20497 1-269).
T1 chain: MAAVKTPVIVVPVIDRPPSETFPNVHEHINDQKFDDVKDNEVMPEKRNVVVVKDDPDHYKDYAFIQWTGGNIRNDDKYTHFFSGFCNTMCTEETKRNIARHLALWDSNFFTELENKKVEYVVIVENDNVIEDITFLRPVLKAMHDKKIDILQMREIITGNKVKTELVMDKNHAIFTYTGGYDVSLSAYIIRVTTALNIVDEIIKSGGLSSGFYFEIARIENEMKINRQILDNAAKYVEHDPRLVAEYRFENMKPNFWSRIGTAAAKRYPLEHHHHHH
In words: Western blot on E. coli lysates (FIG. 12A). Background: In western blotting, separated proteins are transferred to a membrane and probed.

B1: 130D67 human anti-H3L monoclonal antibody (antibody, V domains shown)
VH: EVQLVESGGGLVQPGRSLRLSCAASGFTFDDYAIHWVRQAPGKGLEWVSGISWNGRSIGYADSVKGRFTISRDNAKNSLYLQMNSLRAEDTALYYCAKDIGFYGSGSLDYWGQGTLVTVSS
VL: not shown
Turning to B1, the binding result is “binds”.
